From article PMC10881741, “Structural modifications toward improved lead-203/lead-212 peptide-based image-guided alpha-particle radiopharmaceutical therapies for neuroendocrine tumors” (European Journal of Nuclear Medicine and Molecular Imaging, 2023)
Where two headings read alike, the source gives them in different places.

Legend:
AR42J xenografts = test: SPECT/CT imaging with blocking by unlabeled peptide; assay type: in vivo, mice; conditions: 11.1 MBq, 30 nmol unlabeled PSC-PEG2-TOC
Protocol: Serial SPECT/CT imaging was conducted at 3 h and 24 h post-administration. The imaging study was performed at the University of Iowa Small Animal Imaging Core using an INVEON trimodality SPECT/positron emission tomography (PET)/CT scanner (Siemens Preclinical, Knoxville, TN) equipped with medium-energy (0.3 mm) pinhole collimators. Data were reconstructed using three-dimensional ordered-subsets expectation maximization (OSEM-3D) algorithm with eight iterations and six subsets. Post-reconstruction images were smoothed with a 3D Gaussian kernel. Post-imaging biodistribution of the radiotracer in mice was obtained at 30 h post-administration.

AR42J cells = test: Cellular uptake of ^203Pb-labeled peptides; assay type: cell-based, rat; conditions: 2 h post-incubation
Protocol: PSCTOC and PSC-PEG2-TOC were labeled with ^203Pb and purified via HPLC for high molar activities as descibed in the Supplementary Material and in Li and collaborators. The HPLC-purified ^203Pb-labeled peptides (3.4 kBq) were incubated with AR42J cells in 24-well plates (pre-coated with poly-D-lysine), which were plated at a density of 2.0 × 10^5 cells 2 days prior, in the binding medium at 37 °C for up to 120 min. The cells were then washed twice and lysed, and the radioactivities of the samples were determined (n=3).

[1] = In vivo biodistribution of ^203Pb-labeled peptides; set-up: species or system mice; conditions: female, athymic nu/nu, mouse, intravenous, total radioactivity
Protocol: AR42J cells (5.0 × 10^6 cells/animal) were implanted subcutaneously on the left shoulder of female athymic nu/nu mice. […] Extra groups of mice were co-administered 37 kBq of ^203Pb-PSC-PEG2-TOC with DL-lysine (400 mg/kg) to determine the effect of amino acid on renal uptake of the radiopharmaceutical. Mice (n=3 per time point) were euthanized at 1, 3, and 24 h post-administration, and tumors and organs/tissues of interest were excised and weighed. The radioactivities of the samples were measured using the gamma counter.

For `C[C@@H](O)[C@@H]1NC(=O)[C@H](CCCCN)NC(=O)[C@@H](Cc2c[nH]c3ccccc23)NC(=O)[C@H](Cc2ccc(O)cc2)NC(=O)[C@@H](NC(=O)[C@@H](Cc2ccccc2)NC(=O)CCOCCOCCNC(=O)CN2CCN(CC(=O)O)CCN(CC(N)=O)CCN(CC(=O)O)CC2)CSSC[C@@H](C(=O)N[C@H](CO)[C@@H](C)O)NC1=O` [[^203Pb]Pb-PSC-PEG2-TOC, metal not drawn], the “Tumor uptake with co-administration of excessive unlabeled peptide” value (AR42J xenografts) was “almost completely blocked”, the “Cellular uptake, factor vs. [^203Pb]Pb-PSCTOC” value (AR42J cells) was 4 and the “Cellular uptake, fold vs. [^203Pb]Pb-DOTATOC” value (AR42J cells) was 21 fold. For the same molecule, the Cellular uptake (AR42J cells; 37 °C) was 18%, the tissue uptake at 1 h ([1]; blood, 37 kBq, 1 h post-administration, read-out: Blood) was 0.36 ± 0.1 %ID/g and the tissue uptake at 3 h ([1]; blood, 37 kBq, 3 h (No Lys), Table S4 study, read-out: Blood) was 0.07 ± 0.02 %ID/g. The tissue uptake at 3 h ([1]; blood, 37 kBq, 3 h post-administration, read-out: Blood) was 0.05 %ID/g, the tissue uptake at 24 h ([1]; blood, 37 kBq, 24 h post-administration, read-out: Blood) was 0.02 %ID/g and the tissue uptake at 1 h ([1]; blood, 1 h, DL-lysine co-administered, read-out: Blood) was 0.36 ± 0.15 %ID/g. It also gave a tissue uptake at 3 h ([1]; blood, 3 h (Blocking): 10 nmol unlabeled PSC-PEG2-TOC co-administered, read-out: Blood) of 0.13 ± 0.02 %ID/g, a tissue uptake at 3 h ([1]; blood, 3 h, DL-lysine co-administered, read-out: Blood) of 0.07 ± 0.02 %ID/g and a tissue uptake at 6 h ([1]; blood, DL-lysine co-administered, read-out: Blood) of 0.05 ± 0.03 %ID/g. For the same molecule, the tissue uptake at 24 h ([1]; blood, 24 h, DL-lysine co-administered, read-out: Blood) was 0.01 %ID/g, the tissue uptake at 3 h ([1]; bone marrow, 37 kBq, 3 h (No Lys), Table S4 study, read-out: Bone marrow) was 4.17 ± 1.51 %ID/g and the tissue uptake at 1 h ([1]; bone marrow, 1 h, DL-lysine co-administered, read-out: Bone marrow) was 2.42 ± 0.32 %ID/g. For the same molecule, the tissue uptake at 3 h ([1]; bone marrow, 3 h (Blocking): 10 nmol unlabeled PSC-PEG2-TOC co-administered, read-out: Bone marrow) was 0.99 ± 0.42 %ID/g, the tissue uptake at 3 h ([1]; bone marrow, 3 h, DL-lysine co-administered, read-out: Bone marrow) was 4.13 ± 1.55 %ID/g and the tissue uptake at 6 h ([1]; bone marrow, DL-lysine co-administered, read-out: Bone marrow) was 1.69 ± 0.34 %ID/g. The tissue uptake at 24 h ([1]; bone marrow, 24 h, DL-lysine co-administered, read-out: Bone marrow) was 0.87 ± 0.6 %ID/g, the tissue uptake at 3 h ([1]; bone, 37 kBq, 3 h (No Lys), Table S4 study, read-out: Bone) was 0.62 ± 0.24 %ID/g and the tissue uptake at 1 h ([1]; bone, 1 h, DL-lysine co-administered, read-out: Bone) was 1.48 ± 0.34 %ID/g. The tissue uptake at 3 h ([1]; bone, 3 h (Blocking): 10 nmol unlabeled PSC-PEG2-TOC co-administered, read-out: Bone) was 0.16 ± 0.1 %ID/g, the tissue uptake at 3 h ([1]; bone, 3 h, DL-lysine co-administered, read-out: Bone) was 0.48 ± 0.05 %ID/g and the tissue uptake at 6 h ([1]; bone, DL-lysine co-administered, read-out: Bone) was 0.35 ± 0.06 %ID/g. It also gave a tissue uptake at 24 h ([1]; bone, 24 h, DL-lysine co-administered, read-out: Bone) of 0.16 ± 0.04 %ID/g, a tissue uptake at 1 h ([1]; brain, 37 kBq, 1 h post-administration, read-out: Brain) of 0.04 ± 0.01 %ID/g and a tissue uptake at 3 h ([1]; brain, 37 kBq, 3 h (No Lys), Table S4 study, read-out: Brain) of 0.08 ± 0.06 %ID/g. It also gave a tissue uptake at 3 h ([1]; brain, 37 kBq, 3 h post-administration, read-out: Brain) of 0.02 %ID/g, a tissue uptake at 24 h ([1]; brain, 37 kBq, 24 h post-administration, read-out: Brain) of 0.01 %ID/g and a tissue uptake at 1 h ([1]; brain, 1 h, DL-lysine co-administered, read-out: Brain) of 0.04 ± 0.01 %ID/g. The tissue uptake at 3 h ([1]; brain, 3 h (Blocking): 10 nmol unlabeled PSC-PEG2-TOC co-administered, read-out: Brain) was 0.03 ± 0.01 %ID/g, the tissue uptake at 3 h ([1]; brain, 3 h, DL-lysine co-administered, read-out: Brain) was 0.03 ± 0.01 %ID/g and the tissue uptake at 6 h ([1]; brain, DL-lysine co-administered, read-out: Brain) was 0.02 %ID/g. The tissue uptake at 24 h ([1]; brain, 24 h, DL-lysine co-administered, read-out: Brain) was 0.01 %ID/g, the tissue uptake at 1 h ([1]; heart, 37 kBq, 1 h post-administration, read-out: Heart) was 0.2 ± 0.05 %ID/g and the tissue uptake at 3 h ([1]; heart, 37 kBq, 3 h (No Lys), Table S4 study, read-out: Heart) was 0.2 ± 0.13 %ID/g. The tissue uptake at 3 h ([1]; heart, 37 kBq, 3 h post-administration, read-out: Heart) was 0.08 ± 0.02 %ID/g, the tissue uptake at 24 h ([1]; heart, 37 kBq, 24 h post-administration, read-out: Heart) was 0.03 ± 0.01 %ID/g and the tissue uptake at 1 h ([1]; heart, 1 h, DL-lysine co-administered, read-out: Heart) was 0.28 ± 0.08 %ID/g. It also gave a tissue uptake at 3 h ([1]; heart, 3 h (Blocking): 10 nmol unlabeled PSC-PEG2-TOC co-administered, read-out: Heart) of 0.07 ± 0.03 %ID/g, a tissue uptake at 3 h ([1]; heart, 3 h, DL-lysine co-administered, read-out: Heart) of 0.15 ± 0.03 %ID/g and a tissue uptake at 6 h ([1]; heart, DL-lysine co-administered, read-out: Heart) of 0.07 ± 0.05 %ID/g. It also gave a tissue uptake at 24 h ([1]; heart, 24 h, DL-lysine co-administered, read-out: Heart) of 0.03 ± 0.01 %ID/g, a tissue uptake at 1 h ([1]; kidneys, 37 kBq, 1 h post-administration, read-out: Kidneys) of 20.6 %ID/g and a tissue uptake at 3 h ([1]; kidneys, 37 kBq, 3 h (No Lys), Table S4 study, read-out: Kidneys) of 22.1 ± 1.92 %ID/g. It also gave a tissue uptake at 3 h ([1]; kidneys, 37 kBq, 3 h post-administration, read-out: Kidneys) of 15.8 ± 1.11 %ID/g, a tissue uptake at 24 h ([1]; kidneys, 37 kBq, 24 h post-administration, read-out: Kidneys) of 1.5 %ID/g and a tissue uptake at 1 h ([1]; kidneys, 1 h, DL-lysine co-administered, read-out: Kidneys) of 13.3 ± 3.8 %ID/g. For the same molecule, the tissue uptake at 3 h ([1]; kidneys, 3 h (Blocking): 10 nmol unlabeled PSC-PEG2-TOC co-administered, read-out: Kidneys) was 40.9 ± 9.92 %ID/g, the tissue uptake at 3 h ([1]; kidneys, 3 h, DL-lysine co-administered, read-out: Kidneys) was 9.84 ± 0.88 %ID/g and the tissue uptake at 6 h ([1]; kidneys, DL-lysine co-administered, read-out: Kidneys) was 5.44 ± 0.63 %ID/g. For the same molecule, the tissue uptake at 24 h ([1]; kidneys, 24 h, DL-lysine co-administered, read-out: Kidneys) was 1.25 ± 0.86 %ID/g, the tissue uptake at 1 h ([1]; large intestine, 37 kBq, 1 h post-administration, read-out: Large intestine) was 1.24 ± 0.12 %ID/g and the tissue uptake at 3 h ([1]; large intestine, 37 kBq, 3 h (No Lys), Table S4 study, read-out: Large intestine) was 1.92 ± 0.56 %ID/g. The tissue uptake at 3 h ([1]; large intestine, 37 kBq, 3 h post-administration, read-out: Large intestine) was 6.32 ± 0.68 %ID/g, the tissue uptake at 24 h ([1]; large intestine, 37 kBq, 24 h post-administration, read-out: Large intestine) was 0.83 ± 0.45 %ID/g and the tissue uptake at 1 h ([1]; large intestine, 1 h, DL-lysine co-administered, read-out: Large intestine) was 1.99 ± 0.31 %ID/g. It also gave a tissue uptake at 3 h ([1]; large intestine, 3 h (Blocking): 10 nmol unlabeled PSC-PEG2-TOC co-administered, read-out: Large intestine) of 0.99 ± 0.46 %ID/g, a tissue uptake at 3 h ([1]; large intestine, 3 h, DL-lysine co-administered, read-out: Large intestine) of 3.97 ± 0.97 %ID/g and a tissue uptake at 6 h ([1]; large intestine, DL-lysine co-administered, read-out: Large intestine) of 3.34 ± 0.63 %ID/g. It also gave a tissue uptake at 24 h ([1]; large intestine, 24 h, DL-lysine co-administered, read-out: Large intestine) of 1.01 ± 0.67 %ID/g, a tissue uptake at 1 h ([1]; liver, 37 kBq, 1 h post-administration, read-out: Liver) of 0.36 ± 0.05 %ID/g and a tissue uptake at 3 h ([1]; liver, 37 kBq, 3 h (No Lys), Table S4 study, read-out: Liver) of 0.31 ± 0.03 %ID/g. For the same molecule, the tissue uptake at 3 h ([1]; liver, 37 kBq, 3 h post-administration, read-out: Liver) was 0.23 ± 0.02 %ID/g, the tissue uptake at 24 h ([1]; liver, 37 kBq, 24 h post-administration, read-out: Liver) was 0.08 ± 0.04 %ID/g and the tissue uptake at 1 h ([1]; liver, 1 h, DL-lysine co-administered, read-out: Liver) was 0.44 ± 0.08 %ID/g. It also gave a tissue uptake at 3 h ([1]; liver, 3 h (Blocking): 10 nmol unlabeled PSC-PEG2-TOC co-administered, read-out: Liver) of 0.3 ± 0.07 %ID/g, a tissue uptake at 3 h ([1]; liver, 3 h, DL-lysine co-administered, read-out: Liver) of 0.25 ± 0.05 %ID/g and a tissue uptake at 6 h ([1]; liver, DL-lysine co-administered, read-out: Liver) of 0.17 ± 0.02 %ID/g. It also gave a tissue uptake at 24 h ([1]; liver, 24 h, DL-lysine co-administered, read-out: Liver) of 0.06 ± 0.01 %ID/g and a tissue uptake at 1 h ([1]; lung, 37 kBq, 1 h post-administration, read-out: Lung) of 3.58 ± 1.64 %ID/g.
